Test results taken from patent publication US8012471B2, “Screening and treatment methods using IGS5 enzymes of the metalloprotease family” (Abbott Healthcare Products B.V., priority 1999, dated 2011).

What was measured:
Assay type in all cases: biochemical
ECE-1 = molecular target: T1, ECE-1 (Homo sapiens, UniProt P42892); experiment: PACAP(1-27) cleavage by recombinantly produced ECE-1; conditions: assay conditions as for IGS5
T1 sequence (P42892 1-770): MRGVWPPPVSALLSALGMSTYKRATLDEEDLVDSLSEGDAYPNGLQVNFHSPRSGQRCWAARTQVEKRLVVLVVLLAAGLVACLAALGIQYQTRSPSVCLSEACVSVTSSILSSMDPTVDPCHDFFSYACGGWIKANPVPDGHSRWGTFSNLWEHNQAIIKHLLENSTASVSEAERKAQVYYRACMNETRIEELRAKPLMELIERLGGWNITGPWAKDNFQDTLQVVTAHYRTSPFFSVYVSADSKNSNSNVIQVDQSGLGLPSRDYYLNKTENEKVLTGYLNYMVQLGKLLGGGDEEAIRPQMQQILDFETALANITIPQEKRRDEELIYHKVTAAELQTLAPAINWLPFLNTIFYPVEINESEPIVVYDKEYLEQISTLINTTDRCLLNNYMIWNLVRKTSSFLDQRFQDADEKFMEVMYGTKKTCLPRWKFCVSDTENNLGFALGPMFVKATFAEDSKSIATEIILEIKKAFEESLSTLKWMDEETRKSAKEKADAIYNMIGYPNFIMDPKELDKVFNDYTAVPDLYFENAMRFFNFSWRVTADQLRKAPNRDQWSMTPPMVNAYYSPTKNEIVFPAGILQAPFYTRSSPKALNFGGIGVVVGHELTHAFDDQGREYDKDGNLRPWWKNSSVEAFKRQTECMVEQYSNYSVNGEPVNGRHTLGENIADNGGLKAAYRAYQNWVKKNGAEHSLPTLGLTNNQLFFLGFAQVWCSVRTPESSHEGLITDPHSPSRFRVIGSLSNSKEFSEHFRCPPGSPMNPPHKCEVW
Experimental: (§1) A quantity of 80 μl of the assay buffer, 10 μl of enzyme working solution (5 μg/ml) and 10 μl of substrate stock solution (PACAP(1-27)) were mixed in an Eppendorf vial and incubated for 120 min. at 37° C. The enzymatic reaction was subsequently terminated by heating to 95° C. for 5 min. After centrifugation (Heraeus Biofuge B, 3 min) the supernatant was subjected to HPLC
(§2) In addition, it was also analysed whether PACAP(1-27) is cleaved by other recombinantly produced metalloproteases of the M13 family, such as NEP, ECE-1 and XCE/DINE. […] The data summarized herein indicate that PACAP(1-27) might be the physiologically relevant substrate of hSEP.

XCE/DINE = molecular target: T2, XCE/DINE (Homo sapiens, UniProt O95672); experiment: PACAP(1-27) cleavage by recombinantly produced XCE/DINE; conditions: assay conditions as for IGS5
T2 sequence (O95672 1-775): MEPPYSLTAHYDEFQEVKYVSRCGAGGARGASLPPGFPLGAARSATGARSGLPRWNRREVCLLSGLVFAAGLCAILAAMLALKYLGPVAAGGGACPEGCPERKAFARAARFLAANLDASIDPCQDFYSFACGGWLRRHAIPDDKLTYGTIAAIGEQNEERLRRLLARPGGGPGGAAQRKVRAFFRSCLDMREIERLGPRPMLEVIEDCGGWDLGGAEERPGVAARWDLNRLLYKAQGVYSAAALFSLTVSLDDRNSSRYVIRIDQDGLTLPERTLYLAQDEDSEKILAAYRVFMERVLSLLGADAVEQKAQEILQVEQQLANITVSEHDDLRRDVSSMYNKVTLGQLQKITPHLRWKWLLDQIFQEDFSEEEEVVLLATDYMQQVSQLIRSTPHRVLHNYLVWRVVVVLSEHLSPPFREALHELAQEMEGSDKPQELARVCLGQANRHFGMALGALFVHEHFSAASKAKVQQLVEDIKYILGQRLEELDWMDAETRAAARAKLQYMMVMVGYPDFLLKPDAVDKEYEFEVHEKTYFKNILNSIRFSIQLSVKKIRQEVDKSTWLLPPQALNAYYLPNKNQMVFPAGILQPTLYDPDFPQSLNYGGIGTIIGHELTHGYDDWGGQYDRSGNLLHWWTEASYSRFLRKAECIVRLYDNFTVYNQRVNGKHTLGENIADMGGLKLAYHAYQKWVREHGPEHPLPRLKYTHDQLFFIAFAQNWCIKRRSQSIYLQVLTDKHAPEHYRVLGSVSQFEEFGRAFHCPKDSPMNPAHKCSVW
Experimental: as §1, §2

NEP = NEP (Homo sapiens, UniProt P08473); experiment: PACAP(1-27) cleavage by recombinantly produced NEP; conditions: assay conditions as for IGS5
Experimental: as §1, §2

[1] = molecular target: T3, IGS5 polypeptide (His6-tagged IGS5 ectodomain) (Homo sapiens, UniProt Q495T6, V306M); experiment: Hydrolysis of vasoactive peptides and PACAP(1-27) by IGS5 polypeptide (HPLC); conditions: 100 μl assay volume; 100 ng IGS5 polypeptide; 0.5 μM substrate; 2 h, 37° C.
T3 construct: made in house; host or cells: Spodoptera frugiperda Sf9 (baculovirus IGBV73)
T3 sequence (Q495T6 with tags, fused parts or gaps V306M): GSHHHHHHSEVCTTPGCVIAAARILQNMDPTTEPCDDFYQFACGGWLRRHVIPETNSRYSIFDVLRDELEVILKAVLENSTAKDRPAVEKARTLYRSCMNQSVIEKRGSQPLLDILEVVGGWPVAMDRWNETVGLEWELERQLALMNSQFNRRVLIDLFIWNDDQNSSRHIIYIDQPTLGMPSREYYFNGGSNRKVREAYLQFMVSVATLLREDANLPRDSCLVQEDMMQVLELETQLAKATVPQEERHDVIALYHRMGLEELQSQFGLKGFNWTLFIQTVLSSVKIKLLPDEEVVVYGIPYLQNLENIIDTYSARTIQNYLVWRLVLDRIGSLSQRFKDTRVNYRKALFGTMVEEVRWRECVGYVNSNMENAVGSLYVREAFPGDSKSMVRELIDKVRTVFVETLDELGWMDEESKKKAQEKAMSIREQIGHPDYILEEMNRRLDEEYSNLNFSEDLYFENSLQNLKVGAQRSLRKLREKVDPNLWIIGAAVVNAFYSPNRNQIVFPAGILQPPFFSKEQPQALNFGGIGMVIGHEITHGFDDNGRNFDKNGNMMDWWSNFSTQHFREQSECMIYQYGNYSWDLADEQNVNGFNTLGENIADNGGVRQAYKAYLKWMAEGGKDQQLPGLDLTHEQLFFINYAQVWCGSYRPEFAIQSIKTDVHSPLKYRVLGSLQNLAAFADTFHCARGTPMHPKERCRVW
Experimental: The enzymatic activity of IGS5 polypeptides of the invention was tested with regard to the metabolism of biologically active peptides. In particular it was tested whether these IGS5 polypeptides may act on a variety of vasoactive peptides known in the state of the art e.g. such like atrial natriuretic peptide (ANP), bradykinin, big endothelin (Big ET-1), endothelin (ET-1), substance P and angiotensin-1. In the context of the present invention in particular it was tested whether the IGS5 ectodomain, which is a novel human metalloprotease, hydrolyzes said vasoactive peptides. For comparison the assay was also performed for a known member of the metalloprotease family which was described earlier as soluble secreted endopeptidase (SEP) by Ikeda, Emoto et al. (J. Biol. Chem., Vol. 274 (1999): pp. 32469-32477). Furthermore, it was tested whether the activity of IGS5 to convert a Big-ET-1 analogue (the so-called 17 aa Big-ET) may be inhibited by reference compounds that are used to determine the inhibition properties with regard to enzymes having ECE and/or NEP-characteristics. […] It was then checked whether the activity of IGS5 to convert PACAP(1-27) may be inhibited by a compound known to be a IGS5 inhibitor. The compound used to test the inhibition of IGS5-activity on PACAP(1-27) was the active metabolite of (3S,2′R)-3-{1-[2′-(ethoxycarbonyl)-4′-phenylbutyl]-cyclopentane-1-carbonylamino}-2,3,4,5-tetrahydro-2-oxo-1H-1-benzazepine-1-acetic acid (compound Ia-2 from WO 02/094176).
The enzymatic reaction was subsequently terminated by heating to 95° C. for 5 min. After centrifugation (Heraeus Biofuge B, 3 min) the supernatant was subjected to HPLC
In order to separate the remaining substrate from the cleavage products reversed phase HPLC technique was used with a CC 125/4 Nucleosil 300/5 C18 RP column and a CC 8/4 Nucleosil 100/5 C18 precolumn (commercially available from Macherey-Nagel, Duren, Germany). Thus, 60 μl of the reaction samples obtained in Example 7B were injected into the HPLC, and the column was eluted at a flow rate of 1 ml/min by applying the following gradient and solutions: […]
Peptides were detected by absorbance at 214 nm (UV spectroscopy) and/or by fluorescence with an excitation wavelength of 328 nm and an emission wavelength of 393 nm.
% Hydrolysis: For detection of substrate cleavage, the percentage of hydrolysis was calculated by directly comparing the substance peak areas in HPLC traces of the sample without addition of any IGS5 enzyme activity (blank) and of the samples with addition of IGS5 enzyme (sample). % hydrolysis was calculated on basis of the respective peak areas. % hydrolysis=100*(1−(Asample/Ablank))

NEP, sequence (P08473 whole entry): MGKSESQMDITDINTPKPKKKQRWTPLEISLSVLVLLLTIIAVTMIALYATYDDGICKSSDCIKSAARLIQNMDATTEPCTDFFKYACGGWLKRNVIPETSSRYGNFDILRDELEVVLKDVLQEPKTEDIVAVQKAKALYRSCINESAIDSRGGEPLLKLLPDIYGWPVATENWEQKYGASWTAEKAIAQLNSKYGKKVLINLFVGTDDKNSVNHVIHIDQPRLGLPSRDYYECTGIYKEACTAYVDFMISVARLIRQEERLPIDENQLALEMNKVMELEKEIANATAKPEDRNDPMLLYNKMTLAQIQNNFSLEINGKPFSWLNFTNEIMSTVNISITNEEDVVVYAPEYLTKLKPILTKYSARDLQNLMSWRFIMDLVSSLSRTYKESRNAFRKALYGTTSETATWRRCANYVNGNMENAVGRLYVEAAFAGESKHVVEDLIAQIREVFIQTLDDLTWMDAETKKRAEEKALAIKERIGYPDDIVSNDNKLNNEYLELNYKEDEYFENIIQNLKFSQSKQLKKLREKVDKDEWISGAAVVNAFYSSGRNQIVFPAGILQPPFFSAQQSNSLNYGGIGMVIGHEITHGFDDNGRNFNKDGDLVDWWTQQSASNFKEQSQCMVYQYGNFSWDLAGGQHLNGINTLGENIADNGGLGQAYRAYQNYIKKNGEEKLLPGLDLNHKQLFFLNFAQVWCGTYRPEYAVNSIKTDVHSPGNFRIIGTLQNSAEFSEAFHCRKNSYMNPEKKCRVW

## His-Ser-Asp-Gly-Ile-Phe-Thr-Asp-Ser-Tyr-Ser-Arg-Tyr-Arg-Lys-Gln-Met-Ala-Val-Lys-Lys-Tyr-Leu-Ala-Ala-Val-Leu [PACAP (1-27)]
ECE-1
  Cleavage of PACAP(1-27) by ECE-1: None of the aforementioned enzymes was able to cleave
XCE/DINE
  Cleavage of PACAP(1-27) by XCE/DINE: None of the aforementioned enzymes was able to cleave
NEP
  Cleavage of PACAP(1-27) by NEP: None of the aforementioned enzymes was able to cleave
[1]
  % Hydrolysis by IGS5 Polypeptide: 69%
